Test results: the supplement of paper PMC9112550, “Optimization of the antimicrobial peptide Bac7 by deep mutational scanning” (BMC Biology, 2022)

System: Escherichia coli TOP10
Test: shrunken log2 fold change of peptide-encoding DNA abundance (4.5 h post-induction vs induction); higher = less antimicrobial activity (less host growth inhibition)
Conditions: time post-induction: 4.5 h; library: site-saturation at positions 5, 18, 19, 20
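Further: peptides expressed intracellularly from a pBAD plasmid library in pooled LB shake-flask culture, induced with 0.3% L-arabinose, DNA abundance read by NGS, three biological replicates, DESeq2 with apeglm shrinkage.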

Row | Sequence | shrunken log2 fold change
1 | RRIRARPPRLPRPRPRPASEPRP | 0.285
2 | RRIRDRPPRLPRPRPRPFWQPRP | 0.0546
3 | RRIRKRPPRLPRPRPRPWDHPRP | -0.0434
4 | RRIRHRPPRLPRPRPRPNMDPRP | -0.173
5 | RRIRWRPPRLPRPRPRPTSQPRP | 0.229
6 | RRIRIRPPRLPRPRPRPFCKPRP | -0.893
7 | RRIRIRPPRLPRPRPRPTPLPRP | 0.245
8 | RRIRYRPPRLPRPRPRPGGYPRP | -0.00146
9 | RRIRMRPPRLPRPRPRPGANPRP | 1.17
10 | RRIRQRPPRLPRPRPRPNCWPRP | 0.0822
11 | RRIRKRPPRLPRPRPRPGSIPRP | 0.00442
12 | RRIRNRPPRLPRPRPRPVNCPRP | -0.147
13 | RRIRVRPPRLPRPRPRPVPDPRP | -0.103
14 | RRIRQRPPRLPRPRPRPEEHPRP | -0.0135
15 | RRIRNRPPRLPRPRPRPSGNPRP | -0.315
16 | RRIRFRPPRLPRPRPRPWCQPRP | -0.0361
17 | RRIRNRPPRLPRPRPRPCRAPRP | -0.0439
18 | RRIRERPPRLPRPRPRPILEPRP | -0.0533
19 | RRIRCRPPRLPRPRPRPMYDPRP | -0.0891
20 | RRIRLRPPRLPRPRPRPSNQPRP | -1.04
21 | RRIRTRPPRLPRPRPRPALEPRP | 0.122
22 | RRIRARPPRLPRPRPRPHFYPRP | 0.107
23 | RRIRGRPPRLPRPRPRPQACPRP | 0.27
24 | RRIRTRPPRLPRPRPRPCAKPRP | 0.423
25 | RRIRVRPPRLPRPRPRPEHHPRP | -0.334

Row | Sequence | shrunken log2 fold change
26 | RRIRYRPPRLPRPRPRPRSGPRP | -0.0667
27 | RRIRPRPPRLPRPRPRPMQEPRP | -0.0107
28 | RRIRARPPRLPRPRPRPARYPRP | 0.12
29 | RRIRMRPPRLPRPRPRPITAPRP | 0.244
30 | RRIRGRPPRLPRPRPRPYSCPRP | 0.131
31 | RRIRYRPPRLPRPRPRPQKRPRP | -0.0426
32 | RRIRRRPPRLPRPRPRPKDEPRP | 0.189
33 | RRIRNRPPRLPRPRPRPPDIPRP | -0.341
34 | RRIRLRPPRLPRPRPRPHQKPRP | -0.0932
35 | RRIRIRPPRLPRPRPRPMWVPRP | -0.11
36 | RRIRVRPPRLPRPRPRPATKPRP | 0.153
37 | RRIRVRPPRLPRPRPRPNNVPRP | -0.117
38 | RRIRPRPPRLPRPRPRPPATPRP | 0.939
39 | RRIRSRPPRLPRPRPRPCAGPRP | -0.0708
40 | RRIRKRPPRLPRPRPRPQWVPRP | 0.0548
41 | RRIRLRPPRLPRPRPRPKLDPRP | -0.0265
42 | RRIRKRPPRLPRPRPRPKKKPRP | 0.0709
43 | RRIRWRPPRLPRPRPRPVKIPRP | -0.142
44 | RRIRSRPPRLPRPRPRPVSHPRP | -0.188
45 | RRIRPRPPRLPRPRPRPLQNPRP | -0.179
46 | RRIRSRPPRLPRPRPRPRSLPRP | -0.0256
47 | RRIRMRPPRLPRPRPRPCPSPRP | 0.0607
48 | RRIRHRPPRLPRPRPRPLFQPRP | -0.108
49 | RRIRGRPPRLPRPRPRPSIVPRP | 0.124
50 | RRIRFRPPRLPRPRPRPKYWPRP | -0.176

Row | Sequence | shrunken log2 fold change
51 | RRIRMRPPRLPRPRPRPMPLPRP | 0.00106
52 | RRIRYRPPRLPRPRPRPGAHPRP | -0.818
53 | RRIRCRPPRLPRPRPRPGYEPRP | -0.00917
54 | RRIRHRPPRLPRPRPRPGTGPRP | -0.0184
55 | RRIRDRPPRLPRPRPRPYMEPRP | -0.000464
56 | RRIRVRPPRLPRPRPRPVMNPRP | -0.19
57 | RRIRRRPPRLPRPRPRPGDGPRP | 0.467
58 | RRIRARPPRLPRPRPRPDYNPRP | -0.57
59 | RRIRYRPPRLPRPRPRPVKDPRP | -0.0122
60 | RRIRERPPRLPRPRPRPRCLPRP | 0.0247
61 | RRIRFRPPRLPRPRPRPNFKPRP | -0.222
62 | RRIRQRPPRLPRPRPRPKLKPRP | -0.0236
63 | RRIRIRPPRLPRPRPRPAFSPRP | -0.155
64 | RRIRERPPRLPRPRPRPLMSPRP | -0.406
65 | RRIRSRPPRLPRPRPRPWLCPRP | -0.0753
66 | RRIRWRPPRLPRPRPRPVMHPRP | -0.119
67 | RRIRNRPPRLPRPRPRPTARPRP | 0.198
68 | RRIRDRPPRLPRPRPRPNMSPRP | -0.0444
69 | RRIRLRPPRLPRPRPRPQARPRP | 0.169
70 | RRIRTRPPRLPRPRPRPTMGPRP | 0.0301
71 | RRIRLRPPRLPRPRPRPVDRPRP | 0.584
72 | RRIRIRPPRLPRPRPRPKHYPRP | -0.44
73 | RRIRNRPPRLPRPRPRPTAEPRP | -0.0644
74 | RRIRKRPPRLPRPRPRPSVVPRP | 0.45
75 | RRIRLRPPRLPRPRPRPQSFPRP | -0.0139

Row | Sequence | shrunken log2 fold change
76 | RRIRCRPPRLPRPRPRPDWFPRP | -0.141
77 | RRIRTRPPRLPRPRPRPAIEPRP | 0.0358
78 | RRIRPRPPRLPRPRPRPYTCPRP | -0.179
79 | RRIRNRPPRLPRPRPRPAYRPRP | 0.105
80 | RRIRYRPPRLPRPRPRPPAEPRP | 0.569
81 | RRIRRRPPRLPRPRPRPEWLPRP | 0.794
82 | RRIRTRPPRLPRPRPRPKAWPRP | 0.255
83 | RRIRCRPPRLPRPRPRPWLRPRP | -0.0383
84 | RRIRERPPRLPRPRPRPSSTPRP | -0.32
85 | RRIRGRPPRLPRPRPRPHHIPRP | -0.525
86 | RRIRERPPRLPRPRPRPTCVPRP | -0.0193
87 | RRIRHRPPRLPRPRPRPNLDPRP | -1.17
88 | RRIRRRPPRLPRPRPRPGFKPRP | 0.0975
89 | RRIRLRPPRLPRPRPRPCDHPRP | -0.239
90 | RRIRARPPRLPRPRPRPWKNPRP | -0.145
91 | RRIRHRPPRLPRPRPRPCGWPRP | 0.353
92 | RRIRVRPPRLPRPRPRPTWNPRP | 0.13
93 | RRIRLRPPRLPRPRPRPHQLPRP | -0.25
94 | RRIRNRPPRLPRPRPRPISYPRP | -0.029
95 | RRIRCRPPRLPRPRPRPSWHPRP | -0.488
96 | RRIRWRPPRLPRPRPRPWYQPRP | -0.179
97 | RRIRERPPRLPRPRPRPGTAPRP | -0.0769
98 | RRIRDRPPRLPRPRPRPFVKPRP | -0.1
99 | RRIRVRPPRLPRPRPRPRLAPRP | 0.684
100 | RRIRGRPPRLPRPRPRPRRYPRP | 0.0823

Row | Sequence | shrunken log2 fold change
101 | RRIRERPPRLPRPRPRPNYRPRP | -0.000813
102 | RRIRFRPPRLPRPRPRPNYCPRP | -0.499
103 | RRIRFRPPRLPRPRPRPYGAPRP | -0.193
104 | RRIRWRPPRLPRPRPRPNDGPRP | -0.00211
105 | RRIRNRPPRLPRPRPRPTKQPRP | -0.102
106 | RRIRPRPPRLPRPRPRPDRSPRP | -0.1
107 | RRIRARPPRLPRPRPRPCMEPRP | 0.0522
108 | RRIRCRPPRLPRPRPRPSAHPRP | -0.0707
109 | RRIRKRPPRLPRPRPRPLKHPRP | 0.0711
110 | RRIRPRPPRLPRPRPRPSKNPRP | -0.333
111 | RRIRQRPPRLPRPRPRPRCHPRP | 0.118
112 | RRIRVRPPRLPRPRPRPYGCPRP | -0.00989
113 | RRIRERPPRLPRPRPRPFIYPRP | -0.0998
114 | RRIRCRPPRLPRPRPRPDGCPRP | -0.0861
115 | RRIRSRPPRLPRPRPRPPQPPRP | 0.432
116 | RRIRDRPPRLPRPRPRPDSNPRP | 0.205
117 | RRIRPRPPRLPRPRPRPGSPPRP | 0.0761
118 | RRIRLRPPRLPRPRPRPYRPPRP | -0.221
119 | RRIRYRPPRLPRPRPRPYSAPRP | -1.51
120 | RRIRHRPPRLPRPRPRPARIPRP | 0.0499
121 | RRIRRRPPRLPRPRPRPQSFPRP | 0.0366
122 | RRIRHRPPRLPRPRPRPQPAPRP | -0.0767
123 | RRIRERPPRLPRPRPRPESHPRP | -0.0157
124 | RRIRYRPPRLPRPRPRPFLLPRP | -1.19
125 | RRIRWRPPRLPRPRPRPFTRPRP | -0.00433
